Results as given in US7304127.
Several values for one entry are separate records, joined by “and”; a condition that tells them apart may be missing. Equal entries are not always repeated.

B1: CCR5 317-334 (peptide)
peptide: AKRFCKCCSIFQQEAPER
modifications: not checked
B2: CCR5 29-46 (peptide)
peptide: AARLLPPLYSLVFIFGFV
modifications: not checked
B3: CXCR4 53-70 (peptide)
peptide: IVGNGLVILVMGYQKKLR
modifications: not checked
B4: CCR5 33-50 (peptide)
peptide: LPPLYSLVFIFGFVGNML
modifications: not checked
B5: CXCR4 1-18 (peptide)
peptide: MEGISIYTSDNYTEEMGS
modifications: not checked
B6: CCR5 329-346 (peptide)
peptide: QEAPERASSVYTRSTGEQ
modifications: not checked
B7: CXCR4 29-46 (peptide)
peptide: FREENANFNKIFLPTIYS
modifications: not checked
B8: CCR5 321-338 (peptide)
peptide: CKCCSIFQQEAPERASSV
modifications: not checked
B9: CXCR4 33-50 (peptide)
peptide: NANFNKIFLPTIYSIIFL
modifications: not checked
B10: CXCR4 49-66 (peptide)
peptide: FLTGIVGNGLVILVMGYQ
modifications: not checked
B11: CXCR4 37-54 (peptide)
peptide: NKIFLPTIYSIIFLTGIV
modifications: not checked
B12: CXCR4 25-42 (peptide)
peptide: KEPCFREENANFNKIFLP
modifications: not checked
B13: CCR5 333-350 (peptide)
peptide: ERASSVYTRSTGEQEISV
modifications: not checked
B14: CXCR4 5-22 (peptide)
peptide: SIYTSDNYTEEMGSGDYD
modifications: not checked
B15: CXCR4 41-58 (peptide)
peptide: LPTIYSIIFLTGIVGNGL
modifications: not checked
B16: CXCR4 9-26 (peptide)
peptide: SDNYTEEMGSGDYDSMKE
modifications: not checked
B17: CCR5 337-352 (peptide)
peptide: SVYTRSTGEQEISVGL
modifications: not checked
B18: CXCR4 17-34 (peptide)
peptide: GSGDYDSMKEPCFREENA
modifications: not checked
B19: CCR5 309-326 (peptide)
peptide: LVFFQKHIAKRFCKCCSI
modifications: not checked
B20: CXCR4 45-62 (peptide)
peptide: YSIIFLTGIVGNGLVILV
modifications: not checked
B21: CCR5 313-330 (peptide)
peptide: QKHIAKRFCKCCSIFQQE
modifications: not checked
B22: CXCR4 13-30 (peptide)
peptide: TEEMGSGDYDSMKEPCFR
modifications: not checked
B23: CXCR4 21-38 (peptide)
peptide: YDSMKEPCFREENANFNK
modifications: not checked

Target: HIV-1LAI envelope gp120 labeled with radioactive iodine (HIV-1 LAI) (UniProt P03377)
Assay: 125I-gp120, peptide array

Molecule | counts minus background (counts per 20 min)
CCR5 201-218 (peptide) | 180
CCR5 325-342 (peptide) | 100
CCR5 241-258 (peptide) | 214
STRL33 133-150 (peptide) | 702 and 568
STRL33 297-314 (peptide) | 144 and 82.5
CCR5 221-238 (peptide) | 102
STRL33 33-50 (peptide) | 606 and 372
CCR5 237-254 (peptide) | 121
CCR5 161-178 (peptide) | 118
CCR5 165-182 (peptide) | 98
STRL33 113-130 (peptide) | 744 and 908
STRL33 309-326 (peptide) | 112 and 122
STRL33 41-58 (peptide) | 570 and 284
STRL33 109-126 (peptide) | 352 and 510
CCR5 105-122 (peptide) | 80
STRL33 61-78 (peptide) | 412 and 348
STRL33 29-46 (peptide) | 534 and 634
STRL33 105-122 (peptide) | 500 and 408

Target: HIV-1LAI envelope gp120 labeled with radioactive iodine (HIV-1 LAI), P03377
Assay: 125I-gp120, peptide array

Molecule | counts minus background (counts per 20 min)
B1 | 64
B2 | 33
B3 | 238
B4 | 705
B5 | 2590
B6 | 84
B7 | 51
B8 | 53
B9 | 173
B10 | 246
B11 | 138
B12 | 252
B13 | 84
B14 | 71
B15 | 118
B16 | 43
B17 | 47
B18 | -28
B19 | 76
B20 | 123
B21 | 23
B22 | 41
B23 | 53
